# Reference: PMC12242769
# Assays:
# Assay in all cases: EMSA
# [1] = tested on: TbLa RRM1Δ (Trypanosoma brucei); settings: native tRNA modifications except queuosine (from TbTGT2Δ cells); 50 mM HEPES pH 7.5, 1 mM MgCl2, 5 mM KCl; on ice 30 min; ~0.6 nM tRNA, 10 µl; 6% native PAGE
# [2] = tested on: TbLa LaMΔ (Trypanosoma brucei); settings: native tRNA modifications except queuosine (from TbTGT2Δ cells); 50 mM HEPES pH 7.5, 1 mM MgCl2, 5 mM KCl; on ice 30 min; ~0.6 nM tRNA, 10 µl; 6% native PAGE
# [3] = tested on: TbLa (wild type) (Trypanosoma brucei); settings: 1 mM Mg2+; apparent Kd from Hill fit; native tRNA modifications except queuosine (from TbTGT2Δ cells); 50 mM HEPES pH 7.5, 1 mM MgCl2, 5 mM KCl; on ice 30 min; ~0.6 nM tRNA, 10 µl; 6% native PAGE
substance,measurement,setting,value
native mature tRNATyr lacking Q34,Kd,[1],446 nM
same,Kd,[2],855 nM
same,Kd,[3],216 nM
